Data as given in US20080003199A1.

Molecular target: recombinant mature rat IL-33 with N-terminal His-tag (rat) (UniProt Q66H70)
Experiment: cell-based or functional assay

recombinant mature rat IL-33 with N-terminal His-tag (rat), sequence (Q66H70 109-264): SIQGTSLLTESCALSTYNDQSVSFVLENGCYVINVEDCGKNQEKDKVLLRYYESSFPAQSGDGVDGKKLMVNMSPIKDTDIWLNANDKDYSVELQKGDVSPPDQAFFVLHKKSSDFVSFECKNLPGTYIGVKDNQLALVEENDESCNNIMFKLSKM

## mouse soluble ST2 (R&D) (from UniProt P14719 27-337)
  NF-κB promoter activity (luciferase reporter, % increase) in neonatal rat cardiomyocytes: 42%
